Sequences and labels used below:
T1: TNFR2 (TNFRSF1B/CD120b), yeast two-hybrid construct (mouse (clone from a murine embryonic …, UniProt P25119 23-258))
T1 construct: one molecule is used for all Y2H assays; also called cell surface TNFR2
T1 sequence (looked up): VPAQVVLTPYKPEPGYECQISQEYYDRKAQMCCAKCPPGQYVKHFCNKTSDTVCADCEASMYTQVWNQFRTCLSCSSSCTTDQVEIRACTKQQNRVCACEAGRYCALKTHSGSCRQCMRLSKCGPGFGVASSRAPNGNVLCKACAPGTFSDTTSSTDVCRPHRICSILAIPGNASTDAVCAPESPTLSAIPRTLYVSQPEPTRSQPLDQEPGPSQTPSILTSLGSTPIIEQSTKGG

B1: PGRN granulin unit F (yeast two-hybrid construct) (peptide)
chain: AIQCPDSQFECPDFSTCCVMVDGSWGCCPMPQASCCEDRVHCCPHGAFCDLVHTRCI
notes: also called granulin F
B2: PGRN granulin unit C (yeast two-hybrid construct) (peptide)
chain: VPCDNVSSCPSSDTCCQLTSGEWGCCPIPEAVCCSDHQHCCPQGYTCVAEGQCQ
notes: also called granulin C
B3: PGRN granulin unit A (yeast two-hybrid construct) (peptide)
chain: DVKCDMEVSCPDGYTCCRLQSGAWGCCPFTQAVCCEDHIHCCPAGFTCDTQKGTCE
notes: also called granulin A

This assay concerns the target T1, TNFR2 (TNFRSF1B/CD120b), yeast …. Description: yeast two-hybrid, β-galactosidase assay.
Procedure: Assay of protein-protein interactions using the Y2H system. Independent yeast colonies were analyzed for the interaction of two proteins, one of which was fused to the Ga14 DNA binding domain and the other, to the VP16 transactivation domain. Previously published procedures were followed for 1) growing and transforming the yeast strain MAV203 with the selected plasmids; and 2) determining β-galactosidase activity and growth phenotypes on selective media lacking tryptophan, leucine, histidine, and uracil.
For the molecule B1, the binding result is recorded as “no binding”.

As for ITPTGTHPLAKKLPAQRTNRAVALSSS [PGRN linker region P3 (yeast two-hybrid construct)], the binding result is “no binding”.

Turning to B2, the binding result was “no binding”.

As to B3, the binding result was “no binding”.

As for LSKENATTDLLTKLPAHTVGD [PGRN linker region P4 (yeast two-hybrid construct)], the binding result is reported as “no binding”.

EQGPHQVPWMEKAPAHLSLPDPQALKRDV [PGRN linker region P5 (yeast two-hybrid construct)]: the binding result is on record as “no binding”.

Source of the values: patent US20140045756A1 (NEW YORK UNIVERSITY, published 2014).
